The source of these data is patent publication US12673985B2, “Method for the treatment or prophylaxis of cancer by targeting the extracellular portion of keratin 14 (KRT14) residing on cancer cells” (Hudson Institute of Medical Research, priority 2019, dated 2026).

Experiment [1] has as its target T1, full-length recombinant KRT14 protein (Homo sapiens, UniProt P02533).
T1 construct: A 1 μg aliquot of full-length recombinant KRT14 protein (Abcam #ab73637) was separated by SDS PAGE; purchased Abcam ab73637
T1 sequence (P02533 1-472): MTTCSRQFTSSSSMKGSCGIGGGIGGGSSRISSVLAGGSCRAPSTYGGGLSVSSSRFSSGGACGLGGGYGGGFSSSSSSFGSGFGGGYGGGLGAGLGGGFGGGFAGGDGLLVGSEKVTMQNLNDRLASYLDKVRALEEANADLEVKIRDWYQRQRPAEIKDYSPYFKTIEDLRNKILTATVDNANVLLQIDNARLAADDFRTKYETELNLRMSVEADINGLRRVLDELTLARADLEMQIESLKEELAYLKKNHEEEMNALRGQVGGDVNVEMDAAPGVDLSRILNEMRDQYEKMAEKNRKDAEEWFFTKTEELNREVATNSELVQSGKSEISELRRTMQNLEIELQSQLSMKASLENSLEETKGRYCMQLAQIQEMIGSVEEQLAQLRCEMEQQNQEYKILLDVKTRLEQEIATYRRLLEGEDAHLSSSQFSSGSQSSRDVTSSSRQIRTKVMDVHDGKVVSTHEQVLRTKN
Put plainly: Western blotting for KRT14 detection. It counts as binding. The settings on record: dilutions 1:1000 to 1:10,000; 1 μg protein. The protocol: Western Blot analyses. SDS-PAGE and western blotting were performed as previously described in Bilandzic et al. (2013) Mol Endocrinol, 2013. 27(3):466-79). Blots were probed using antibodies against KRT14 (1:1000, SAB4501657), mAb AN-17 and β-actin (1:20,000; Sigma-Aldrich, Castle Hill, Australia). Secondary antibodies HRP-conjugated goat anti-mouse, anti-rabbit and donkey anti-goat (1:50,000; Merck Millipore, Kilsyth, Australia) were used Bilandzic et al. (2013) Mol Endocrinol, 2013. 27(3):466-79). Protein bands were detected using Clarity Western ECL blotting substrate (Biorad #1705061) and visualized using a ChemiDoc (Trade Mark) MP System (Bio-Rad, #1708280).
A 1 μg aliquot of full-length recombinant KRT14 protein (Abcam #ab73637) was separated by SDS PAGE and transferred to PVDF membrane using standard procedures (PMID: 23952987). The membrane was probed with mAb AN-17 at dilutions of 1:1000, 1:5000 and 1:10,000. Secondary antibody was goat anti-mouse HRP conjugate (1:50,000 dilution), with detection of KRT14 using chemiluminescence according to standard protocols (PMID: 23952987; Rainczuk et al., J Proteome Res. 2013; 12(9):4074-88).
A general note: In western blotting, separated proteins are transferred to a membrane and probed.

Another experiment addresses T2, KRT14 (Homo sapiens, UniProt P02533).
T2 sequence (P02533 1-472): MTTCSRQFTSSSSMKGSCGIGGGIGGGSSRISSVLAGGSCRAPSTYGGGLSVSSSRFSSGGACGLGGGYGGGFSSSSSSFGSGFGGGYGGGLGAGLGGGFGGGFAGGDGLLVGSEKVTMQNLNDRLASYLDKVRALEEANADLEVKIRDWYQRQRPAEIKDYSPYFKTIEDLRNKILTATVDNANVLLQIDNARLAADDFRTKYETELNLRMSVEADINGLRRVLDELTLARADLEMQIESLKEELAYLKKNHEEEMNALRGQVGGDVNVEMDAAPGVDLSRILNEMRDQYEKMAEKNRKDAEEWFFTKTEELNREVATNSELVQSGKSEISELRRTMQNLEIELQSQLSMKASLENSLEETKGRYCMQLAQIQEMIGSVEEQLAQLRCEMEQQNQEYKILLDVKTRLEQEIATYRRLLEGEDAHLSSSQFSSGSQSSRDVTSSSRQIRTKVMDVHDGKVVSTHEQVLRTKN
The experiment in a line: Immunofluorescence staining of ovarian cancer cell lines SKOV-3, Ovcar4 and Cov362.3. The settings on record: 1 μg/ml. On the set-up: endogenous in cells; host or cells: SKOV-3, Ovcar4, Cov362.3. It counts as cell-based. The protocol:
The ovarian cancer cell lines SKOV-3, Ovcar4 and Cov362.3 were seeded onto 96 well black fluortrac imaging plates. Intact or fixed (1% paraformaldehyde; PFA) and permeabilized (0.1% Triton X) cells were stained using mAb AN-17. For fixed cells, samples were blocked in 10% fetal bovine serum (FBS) and then stained with 1 μg/ml mAb AN-17 for one hour at room temperature. Cells were subsequently washed with PBS and stained with the Alexa Fluor®-647 goat anti-mouse secondary at 1:2000 for one hour at room temperature. For intact cells, samples were stained with 1 μg/ml mAb AN-17 conjugated to Alexa-647 in PBS containing 1% FBS for two hours at 37° C., the medium was replaced with fresh PBS/1% FBS and cells were immediately imaged. Samples were imaged using the Cytation 3 multimode reader at 4× magnification.

B1: mAb AN-17: monoclonal anti-KRT14 antibody; heavy chain variable region SEQ ID NO:3, light chain variable region SEQ ID NO:5 (clone AN-17A RG4.E5b.A7.B4) (antibody, listed as Mus musculus, V domains shown)
VH: QVQLKESGPGLVAPSQSLSITCTVSGFSLSRYSVHWVRQPPGKGLEWLGMIWGGGSTDYNSALKSRLSISKDNSKSQVFLKMNSLQTDDTAMYYCARKDYGYSYFDYWGQGTTLTVSS
VL: DVLMTQTPLSLPVSLGDQASISCRSSQSIVHSNGNTYLEWYLQKPGQSPKLLIYKVSNRFSGVPDRFSGSGSGTDFTLKISRVEAEDLGVYYCFQGSHVPFTFGSGTKLEIKRADAAPTVS
Consider B1, for which, in experiment [1], the “detection of KRT14 protein by western blotting” value is “successfully detected KRT14 protein”. The staining localization entry with KRT14 (fixed and permeabilized cells) is reported as “Specific intracellular cytoplasmic localization”; in the experiment with KRT14 (intact live cells), “predominant cell surface localization”.
